Reference: patent publication US20180289790A1 (Bristol-Myers Squibb, published 2018)
Where a chain is given by its changes, count along the chain named. Names may count otherwise. One block for each molecule: values may come before it.

Columns and labels:
[1] = molecular target: hCD64 (human) (UniProt P12314); assay: method not stated (Table 9, 'µM Kd')
[2] = molecular target: hCD32a-R131 (human) (UniProt P12318); assay: method not stated (Table 9, 'µM Kd')
[3] = molecular target: hCD32b (human) (UniProt P31994); assay: method not stated (Table 9, 'µM Kd')
[4] = molecular target: hCD32a-H131 (human) (UniProt P12318); assay: method not stated (Table 9, 'µM Kd')
[5] = molecular target: hCD16a-V158 (human) (UniProt P08637); assay: method not stated (Table 9, 'µM Kd')
[6] = molecular target: hCD16a-F158 (human) (UniProt P08637); assay: method not stated (Table 9, 'µM Kd')
[7] = molecular target: human ICOS (huICOS), on activated human CD4+ T cells (human) (UniProt Q9Y6W8); assay: cell-based or functional assay
[8] = molecular target: T1, huICOS/Fc (human, UniProt Q9Y6W8 21-140); assay: SPR binning: reference antibody on chip, test antibody pre-incubated with huICOS/Fc
T1 construct: also called huICOS polypeptide construct; human ICOS antigen; not shown: Fc part
T1 sequence: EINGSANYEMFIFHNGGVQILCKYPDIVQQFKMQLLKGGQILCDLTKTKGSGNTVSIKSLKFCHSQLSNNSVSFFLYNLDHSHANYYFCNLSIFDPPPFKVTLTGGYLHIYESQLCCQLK

[9] = molecular target: T1, huICOS/Fc; assay: HDX-MS, ICOS-Fc mixed with mAb at 1:1 ratio
Procedure: ICOS-Fc was mixed with mAbs at 1:1 ratio and HDX-MS was run for one minute, 10 minutes, 4 hours in duplicate.

[10] = molecular target: T2, human ICOS Fc (R&D Systems, 169-CS-050) (human, UniProt Q9Y6W8 21-140); assay: SPR (Biacore T200), 37 °C, human ICOS Fc captured by anti-hFc on a CM4 chip, Fab as analyte, 1:1 Langmuir model
T2 construct: Bought construct; also called human ICOS with an Fc tag; not shown: Fc tag
T2 sequence: T1 sequence

Chain of hCD32a-R131 (human) (P12318 36-218 H167R limits assumed): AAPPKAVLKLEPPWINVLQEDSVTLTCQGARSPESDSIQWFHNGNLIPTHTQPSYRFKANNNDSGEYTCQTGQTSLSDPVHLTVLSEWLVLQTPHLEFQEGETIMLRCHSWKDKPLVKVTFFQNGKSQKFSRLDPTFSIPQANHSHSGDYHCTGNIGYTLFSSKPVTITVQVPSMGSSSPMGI
Chain of hCD32a-H131 (human) (P12318 36-218 limits assumed): as the sequence (P12318 36-218 H167R limits assumed) above, with R132H counted along it
Chain of hCD64 (human) (P12314 16-288 limits assumed): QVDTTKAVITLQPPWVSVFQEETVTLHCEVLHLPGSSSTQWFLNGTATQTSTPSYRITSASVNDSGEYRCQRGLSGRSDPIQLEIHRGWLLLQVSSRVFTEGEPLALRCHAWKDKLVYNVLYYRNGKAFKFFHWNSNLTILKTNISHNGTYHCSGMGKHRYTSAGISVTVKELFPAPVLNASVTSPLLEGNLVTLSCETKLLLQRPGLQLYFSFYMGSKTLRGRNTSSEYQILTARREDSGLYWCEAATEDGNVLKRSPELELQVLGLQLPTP
Chain of hCD32b (human) (P31994 43-217 limits assumed): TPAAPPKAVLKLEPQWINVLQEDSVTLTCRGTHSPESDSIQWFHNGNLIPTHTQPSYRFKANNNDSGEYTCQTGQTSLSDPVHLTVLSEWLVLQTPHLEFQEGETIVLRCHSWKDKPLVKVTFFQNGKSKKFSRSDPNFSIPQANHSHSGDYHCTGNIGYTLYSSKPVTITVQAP
Chain of hCD16a-F158 (human) (P08637 17-208 limits assumed): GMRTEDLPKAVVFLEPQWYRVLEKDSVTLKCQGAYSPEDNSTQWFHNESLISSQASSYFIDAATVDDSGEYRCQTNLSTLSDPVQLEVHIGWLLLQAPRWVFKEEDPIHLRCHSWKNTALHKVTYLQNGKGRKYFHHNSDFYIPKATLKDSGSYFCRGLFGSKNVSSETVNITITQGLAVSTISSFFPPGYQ
Chain of hCD16a-V158 (human) (P08637 17-208 F176V limits assumed): as the sequence (P08637 17-208 limits assumed) above, with F160V counted along it

Molecule: ICOS.4 (chimeric antibody with the variable regions of hamster antibody C398.4A and human IgG1f constant regions)
EC50 of interferon-gamma secretion, CHO-OKT3-CD32 / CD4+CD25- T cell co-culture [7]: 0.018 µg/mL

Molecule: human IgG1f-S267E, as in Table 9 (antibody)
Kd [1]: 0.2 µM | Kd [2]: 31 µM | Kd [3]: 87 µM | Kd [4]: 650 µM

B1: 17C4 (antibody, V domains shown)
VH: QVTLRESGPALVKPTQTLTLTCTFSGFSLSTSGMCVSWIRQPPGKALEWLALIDWDDDKFYSTSLKTRLTISKDTSKNQVVLTMTNMDPVDTATYYCARMSTPTYYGLDVWGQGTTVTVSS
VL: DIQMTQSPSSLSASVGDRVTITCRASQGISSWLAWYQQKPEKAPKSLIYAASSLQSGVPSRFSGSGSGTDFTLTISSLQPEDFATYYCQQYNSYPLTFGGGTKVEIK
notes: Fully human hybridoma antibody
binding result [8]: binds

B3: 9D5 (antibody, V domains shown)
VH: QITLKESGPTLVKPTQTLTLTCTFSGFSLGTSGLGVGWIRQPPGKALEWLAFIYWDDDKRYSPSLKSRLTITKDTSKNQVVLTMTNMDPVDTATYYCAHRRGFFDYWGQGTLVTVSS
VL: B1 VL
notes: as for B1
binding result [9]: binds

B5: IgG-2644 (antibody, V domains shown)
VH: EVQLLESGGGLVQPGGSLRLSCEASGFIFKYYAMSWVRQAPGKGLEWVSGISGSGGSTYYADSVKGRFTISRDNSKHTLYLQMNSLRAEDTAVYYCAKDGDFDWIHYYYGMDVWGQGTTVTVSS
VL: AIQLTQSPSSLSASVGDRVTITCRASQGISSALAWYQQKPGKAPKLLIYDASSLESGVPSRFSGSGSGTDFTLTISSLQPEDFATYYCQQFNSYPHTFGGGTKVEIKR
notes: Human antibody from mRNA display, cloned into IgG expression vectors
binding result [8]: binds

Continued, values first:

Kd [1]: 0.2 µM | Kd [2]: 960 µM | Kd [3]: 3400 µM | Kd [4]: 530 µM | Kd [5]: 97 µM | Kd [6]: 200 µM
Molecule: human IgG1f (wild type), as in Table 9 (antibody)

binding result [8]: binds
B2: 3E8 (antibody, V domains shown)
VH: QVQLVESGGGVVQPGMSLRLSCAASGFTFSTYGMQWVRQAPGKGLEWVTVIWHDGSHKDYADSVKGRFTISRDNSKNTMYLQMNSLRAEDTAVYYCARDRQTGEGYFDFWGQGTLVTVSS
VL: B1 VL with L96Y, G100Q, V104L
notes: as for B1

Kd [10]: 0.052 to 0.065 µM
B4: ICOS.33 IgG1f S267E Fab fragment (Lot PC-1804-04) (Fab, V domains shown)
VH: EVQLVESGGGLVKPGGSLRLSCAASGFTFSDYFMHWVRQAPGKGLEWVGVIDTKSFNYATYYSDLVKGRFTISRDDSKNTLYLQMNSLKTEDTAVYYCTATIAVPYYFDYWGQGTLVTVSS
VL: DIQMTQSPSSLSASVGDRVTITCQASQDISNYLSWYQQKPGKAPKLLIYYTNLLAEGVPSRFSGSGSGTDFTFTISSLQPEDIATYYCQQYYNYRTFGPGTKVDIKR
notes: Fab of m1; also called Fab fragment of ICOS.33 IgG1f S267E
